The source of these data is US5753483A, “Purified homogeneous UDP-GlcNAc (GalNAc) pyrophosphorylase” (priority 1995, dated 1998).

A word on the Km: it is the substrate concentration at which the rate is half of its maximum.

Data set [1] concerns CC(=O)N[C@H]1[C@@H](OP(=O)(O)OP(=O)(O)OC[C@H]2O[C@@H](n3ccc(=O)[nH]c3=O)[C@H](O)[C@@H]2O)O[C@H](CO)[C@H](O)[C@@H]1O. Briefly: purified protein, by the assay type. The settings on record: other: reverse direction, PP = 1 mM; 37.0 °C.
The test system of data set [2] is CC(=O)NC1C(OP(=O)(O)OP(=O)(O)OCC2OC(n3ccc(=O)[nH]c3=O)C(O)C2O)OC(CO)C(O)C1O. Briefly: purified protein, by the assay type. Particulars: other: reverse direction, PP = 1 mM; 37.0 °C.

Pyrophosphorylase (Sus scrofa), sequence (chain, as listed by the source): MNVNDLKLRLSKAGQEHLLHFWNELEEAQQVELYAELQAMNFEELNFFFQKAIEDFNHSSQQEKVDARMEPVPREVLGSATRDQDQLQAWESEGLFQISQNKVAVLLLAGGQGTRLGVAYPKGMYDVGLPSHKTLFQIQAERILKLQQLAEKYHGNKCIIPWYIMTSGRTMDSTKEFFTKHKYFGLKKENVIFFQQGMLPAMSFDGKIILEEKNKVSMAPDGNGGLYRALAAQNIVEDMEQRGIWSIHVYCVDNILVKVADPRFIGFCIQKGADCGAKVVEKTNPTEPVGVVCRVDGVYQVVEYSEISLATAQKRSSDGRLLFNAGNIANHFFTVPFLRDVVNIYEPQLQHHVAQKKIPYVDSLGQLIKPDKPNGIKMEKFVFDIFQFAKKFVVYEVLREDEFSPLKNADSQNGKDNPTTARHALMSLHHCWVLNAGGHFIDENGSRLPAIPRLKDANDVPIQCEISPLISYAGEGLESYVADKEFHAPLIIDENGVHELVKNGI

In the case of Pyrophosphorylase (Sus scrofa), the Km in data set [1] came out at 200 µM; in data set [2] it was 45 µM.
